# Assay results from WO2003050283A2.
# Like-named read-outs stand apart in the source and are kept apart here.
# Tests used:
# [1] = molecular target: chicken lysozyme (chicken) (UniProt P00698)
# [2] = molecular target: ELK (3% skim milk powder solution); experiment: ELISA, ELK-coated control well; ~5 ng iMab per well, urea-purified; anti-VSV-HRP
# [3] = molecular target: chicken lysozyme (chicken) (UniProt P00698); experiment: ELISA, lysozyme (100 ug/ml) coated well blocked with ELK; ~50 ng iMab per well, urea-purified; anti-VSV-HRP
# [4] = molecular target: chicken lysozyme (chicken) (UniProt P00698); experiment: ELISA, lysozyme (100 ug/ml) coated well blocked with ELK; ~50 ng iMab per well, purified by heat (60 C) solubilisation; anti-VSV-HRP
# UniProt P00698, sequence (P00698 19-147 limits assumed): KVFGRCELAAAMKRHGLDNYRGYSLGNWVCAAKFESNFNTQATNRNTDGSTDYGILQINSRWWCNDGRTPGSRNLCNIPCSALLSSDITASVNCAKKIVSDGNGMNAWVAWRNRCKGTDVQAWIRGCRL
Binder,Absorbtion (450 nm) (absorbance (450 nm)) [1],Absorbtion (450 nm) (absorbance (450 nm)) [2],Absorbtion (450 nm) (absorbance (450 nm)) [3],Absorbtion (450 nm) (absorbance (450 nm)) [4]
iMab1200 (designed binder) HGLPMEKRGNFIVGQNCSLTCPASGYTIGPQCVFNCYFNSALAFSTENMGEWTLDMVFSDAGIYTMCAADSTIYASYYECGHGLSTGGYGYNPVSLGSFWDSP,0.061,0.04,–,–
"iMab100 (designed binder, not shown: small tags and cut ends) NVKLVEKGGNFVENDDDLKLTCRAEGYTIGPYCMGWFRQAPNDDSTNVATINMGGGITYYGDSVKERFDIRRDNASNTVTLSMDDLQPEDSAEYNCAGDSTIYASYYECGHGLSTGGYGYDSHYRGQGTDVTVSS",–,–,0.494,0.369
